The results in this text go back to the supplement of paper PMC12042874.

± gives the uncertainty stated by the source.

The nature of this data set: amyloid nucleation score (Sup35N fusion, yeast selection) (log enrichment); library NNK3; higher = more nucleation; inactive = no reads after selection. The gist of the method: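 Random libraries were run with three technical output replicates. In each, psi-negative yeast expressing Sup35N fused to peptides of 20 random codons were induced 24 hours with 100 μM copper sulfate and grown 7 days at 30°C on medium lacking adenine and uracil, and input and output plasmid inserts were Illumina-sequenced. The nucleation score is the DiMSum log enrichment of output over input reads, centred on the mode score of non-aggregating sequences, and sequences under 100 input reads were excluded.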
Consider TYLHDLYT, for which the amyloid nucleation score result is “inactive”. With TYMGSTYLSNSYVLVSNNIK the figure was 1.72 ± 0.12; with TYYRCSSANLSSGRAEVYKY, “inactive”. Regarding VACTVSEAYKCTLIWTHLVR, the amyloid nucleation score entry is “inactive”. Turning to VAFYMMYSSGPQRTRRWVTV, the amyloid nucleation score result was “inactive”. The result for VAGSLVAKP reads “inactive”; that for VAKVNCTW, -0.431 ± 0.9.

On to VALAGNYCSANVVHCMFLNL, for which the amyloid nucleation score entry was “inactive”.

For the substance VARGNMCNL, the amyloid nucleation score result was “inactive”. With VASTVSRVAKDTKAKVAYR the entry was “inactive”; with VATYVPCPCYSMFCAGIC, -0.355 ± 0.7; with VAVVIEYMKLVVLG, “inactive”.

Take VCCFWVVDIKILFSGLPISS: the amyloid nucleation score is 2.28 ± 0.069. With VCDSHQ the entry was “inactive”.

For VCFILFSS, the amyloid nucleation score entry is “inactive”.

Turning to VCFVWFRRWPTIPR, the amyloid nucleation score result is “inactive”. With VCGILRIIILGLMYVEALGW the entry was “inactive”. With VCLMNVSLRRSSFGATTVLA the entry was “inactive”. The result for VCMVEDFCCLPFDMLLYWLT reads “inactive”. Consider VCNIAQ, for which the amyloid nucleation score result is “inactive”. With VCQPNRSQIQGIFLLRNYSV the entry was “inactive”; with VCRWSGGGEIGIICGLVSLV, “inactive”.

For the substance VCSMWSSSSMIKLRALDDYM, the amyloid nucleation score result is “inactive”. The result for VCTFTETHGTYLVFALYQPD reads 0.367 ± 0.54. VCYYVFRTDIIIVIRVDAWL: the amyloid nucleation score result is “inactive”. The result for VDCMATSQGRIRKYVNFVIW reads 2.35 ± 0.08; that for VDEAEKGVNHLERRGSYSRY, “inactive”.

Substance VDFRYCCGFV yielded an amyloid nucleation score of 0.824 ± 0.26. The substance VDHRGALVEKFMNNSIWTSF registered an amyloid nucleation score of 0.122 ± 0.98. Turning to VDIGTYMFKMTHADRWVDHG, the amyloid nucleation score result was “inactive”. As to VDKLFCWGLYGLATVDNRVY, the amyloid nucleation score entry is “inactive”. With VDLRLDY the entry was “inactive”. With VDNSERLSLHPSVHMGDMGF the entry was “inactive”. With VDSSMDLHSIS the entry was “inactive”; with VDWWSALEDYYSLELLMEVK, “inactive”. With VEDCSFAVVKILWYRPFMIW, the amyloid nucleation score entry is “inactive”. The result for VEIISFSVNKTFQAVFGVDK reads 1.47 ± 0.072; that for VEPDRERKENVC, “inactive”.

As to VEQLTEDKRWRSACKQRRKV, the amyloid nucleation score entry was “inactive”. With VESVRVLVINPNSDNQVLYL the entry was “inactive”.

Regarding VFAFGNIGLVRWFVI, the amyloid nucleation score result is “inactive”. The result for VFCPTWFTMGGVCIAVAHLV reads 0.486 ± 0.33; that for VFCVRRSLQNLRNSGNDSHR, “inactive”. With VFDDY the entry was “inactive”; with VFDGWGLFRLSTICMCLQRH, “inactive”. With VFFVNHFNVWLERM the entry was “inactive”. The substance VFICSAVTNNSWCERLDFSA displayed an amyloid nucleation score of 1.5 ± 0.14. For the substance VFLSICSEGTFCLGDLSGCV, the amyloid nucleation score worked out at 2.43 ± 0.082.

As to VFMKNLNKIDILTSGLDHIY, the amyloid nucleation score entry was “inactive”. Take VFNGFVLKVEQVSIGVC: the amyloid nucleation score entry is “inactive”. The result for VFPGTAVNHMESVHGWLVNY reads “inactive”. The result for VFQHGWGEVLRSRQGLLGSR reads “inactive”; that for VFRMCVYIDLVSLDSYYDVL, “inactive”. For the substance VFSIND, the amyloid nucleation score result is “inactive”. VFSRKKYRHPWMYAVTFGYC: the amyloid nucleation score result is “inactive”.

Take VFVQTLILWVHSRIAALQDS: the amyloid nucleation score result is “inactive”.

Substance VFVSLISSMTIFTCFVPECE gave an amyloid nucleation score of 3.28 ± 0.069. With VFVTM the entry was “inactive”. The result for VFYGKGETYQEWHSLYFLKS reads -0.067 ± 0.98; that for VFYIHIREVTSVVIILVWCS, “inactive”. With VFYIIW the figure was 1.89 ± 0.063; with VFYIYSRW, 1.69 ± 0.091; with VFYSLMILSLLNSRRDGLHQ, 0.429 ± 0.48.

On to VGAFLKLNRNLMTFSMARNY, for which the amyloid nucleation score entry was “inactive”. With VGASQRVYSLLST the entry was “inactive”; with VGDHDPSRFCQDNLCLSRCL, “inactive”; with VGHIRVLDEDNNYMSFYDMR, “inactive”. For VGKFSHACLRIN, the amyloid nucleation score entry was “inactive”.

In the case of VGKWGFQEGST, the amyloid nucleation score entry was “inactive”. With VGLNVSWAYIMVAEYVVYMS the figure was -0.698 ± 0.53; with VGNWYGKTIGMSSLEFLMSR, “inactive”; with VGPRGGNVSEGPPRVWVNGC, “inactive”. The result for VGQLFTSSSSVVSSGCMIVD reads “inactive”; that for VGQWYGFMFWLLLLIIQS, “inactive”; that for VGSLIGMNYGF, “inactive”. Regarding VGSRAGYMRQLSVSACTRVL, the amyloid nucleation score result was “inactive”. The result for VGTGICKRPGYRAGSV reads “inactive”; that for VGTPCSYSWLAAPV, “inactive”.

With VGYLCFLFQTDSFI, the amyloid nucleation score result was “inactive”. The substance VHCHV had an amyloid nucleation score of -0.536 ± 0.93. With VHDRSLHLVGY the figure was -0.841 ± 1.2; with VHGYAAFLRRWWEQMNFSVR, “inactive”; with VHHEILHHGLFGEMSCVVEC, “inactive”. The result for VHKFDSL reads “inactive”; that for VHSCEMSSPPTILKVKLVYL, “inactive”. Substance VHVLVVWYFAFTCVCRVPFG displayed an amyloid nucleation score of 0.228 ± 0.85. The result for VHVSEGPRWRFHSRRDSSVV reads “inactive”.

As to VIALVSGEYSWFRILCTPFY, the amyloid nucleation score entry was “inactive”.

Consider VIFKKGLRLFTSSCDWSISD, for which the amyloid nucleation score entry was “inactive”. The result for VIHMH reads “inactive”; that for VIIICQLHCYTKTMIIRHRC, 0.118 ± 0.3. The result for VIKDYSQCMSWHGVESSWRL reads -0.31 ± 0.68. As to VIMVSSRDQADLCESVMQM, the amyloid nucleation score entry is “inactive”. VINCSAHTEFRGLNFRVTCT: the amyloid nucleation score result was “inactive”. The result for VINVYTAINGSWALN reads 2.17 ± 0.059. Consider VIRDQQIIVKCCNLVSICGI, for which the amyloid nucleation score was found to be 1.32 ± 0.17. VIRLLVIAFRDHLNEVMFHK: the amyloid nucleation score result was “inactive”. The result for VIRRYCAGARHYSVLEIMRE reads “inactive”; that for VISYYIATGGFIDVFYCCKF, 2.15 ± 0.085; that for VIVASVVLKW, “inactive”.

In turn, VIVSREKSITRSNVIEWWNL displayed an amyloid nucleation score of 1.82 ± 0.11. VIVVREYVVWKNISMIVDYL returned an amyloid nucleation score of -0.019 ± 0.24. As for VIVYQKSMLHLGCSLGIAFW, the amyloid nucleation score entry was “inactive”. On to VIWAVPAH, for which the amyloid nucleation score entry is “inactive”. In the case of VKCQRRH, the amyloid nucleation score entry is “inactive”.

As for VKEPPTCVTCSAHSIRSGYS, the amyloid nucleation score entry was “inactive”.

Turning to VKFSTRNFNKVQLHVFTTCM, the amyloid nucleation score result was “inactive”.

On to VKFYNLRRCVIDLMITLSRM, for which the amyloid nucleation score entry was “inactive”. For VKGIEVNRLMFEERISGCYV, the amyloid nucleation score result is “inactive”. Regarding VKKDMRRLLMFRIGGKSFGG, the amyloid nucleation score entry is “inactive”. With VKKSDWAVGLVDSDQCVHFD the entry was “inactive”; with VKRGFEWFCSMTHFNTSCIR, “inactive”. The result for VKTINSWIRWVTLRILQVVS reads “inactive”. On to VKTSQRSVTL, for which the amyloid nucleation score entry was “inactive”.

Regarding VLADYGTM, the amyloid nucleation score entry is “inactive”.

As for VLCQSHACRSHAGLCSSNKI, the amyloid nucleation score entry is “inactive”. For VLFCRFSSWV, the amyloid nucleation score is 0.739 ± 0.26. VLFRKCQCVRSHLI: the amyloid nucleation score result is “inactive”. VLGLFSTYDSFVCFN: the amyloid nucleation score result was “inactive”.

For VLGPGIIRTEQVLTVVRTMA, the amyloid nucleation score entry was “inactive”. The result for VLGPLQLRRIAHETGRCNAM reads “inactive”. With VLHGVL the entry was “inactive”; with VLIITLMYMYATFLSFYKPQ, 2.59 ± 0.085; with VLIKQECSQRFFDSNLNWHF, 0.688 ± 0.33. As for VLKARMY, the amyloid nucleation score result is “inactive”. In the case of VLLMLLTV, the amyloid nucleation score result was “inactive”. With VLLNLSSFMLSTFTLRMS the entry was “inactive”. The result for VLLQKGTETECGLAIVQLKW reads “inactive”; that for VLLVF, “inactive”. With VLMECSNFAVEQTARLVPVR the entry was “inactive”; with VLMGMRCEREFPE, “inactive”.

For VLPVHNKVNITLTVSAPWLW, the amyloid nucleation score entry is “inactive”.
